Reference: patent publication US8367390B2, “Galactanase variants” (Novozymes A/S, priority 2002, dated 2013)

Test: Activity with ONPG, release of o-nitrophenol (ONP) at 405 nm
Type: biochemical
Method: The activity of HIGAL and MTGAL with ONPG was tested by mixing 200 microliters (normally 5.5 mg/ml) ONPG in 50 mM sodium acetate, 1 mM CaCl2, 0.01% Triton X-100, pH 6.5 with 25 microliters galactanase (normally 1 mg/ml) in the well of a microtiter plate. Release of o-nitrophenol (ONP) was measured at room temperature at 405 nm every 10 seconds normally for 30 min on a SpectraMaxPlus (Molecular Devices). Effects on the observed release of ONP was studied with varied enzyme concentration, ONPG concentration and with addition of galactose (Gal), beta-1,4-galactobiose (Gal2) (Megazyme), beta-1,4-galactotriose (Gal3), beta-1,4-galactotetraose (Gal4), glucose (Glu), arabinose (Ara), galacturonic acid (GalA), maltose (Mal) or maltotriose (Mal3).
In Tables 8-11 below, incubation times required to increase the observed absorbance at 405 nm by given amounts are listed. Cells marked ‘n.r.’ indicate that the increase in absorbance was not reached in the experiment. In general, the initial increase in absorbance at 405 nm was very slow, but after a lag phase the rate of ONP release often increased drastically—often approximately exponentially. The most likely explanation for the observed kinetics is that ONPG reacts with the enzyme to give an enzyme-galactosyl intermediate which hydrolyses very slowly. Instead, the Gal of the intermediate is released by transglycosylation, initially with ONPG or added sugar as acceptor. In cases where the rate of ONP release increases, these transglycosylation products are even better acceptors than the initial ones. […] More likely, Gal inhibits the subsequent transglycosylation, which requires binding of ONPG to the +1 and +2 subsites, e.g., by binding to the +2 subsite. With 50 mg/ml Gal added (results not shown) release of ONP was even slower with only insignificant increase of absorbance at 405 nm in 30 min.

[1] = Table 8, enzyme 28 μg/ml, ONPG 5 mg/ml, no sugar
[2] = Table 8, enzyme 55 μg/ml, ONPG 5 mg/ml, Gal 5 mg/ml
[3] = Table 8, enzyme 55 μg/ml, ONPG 5 mg/ml, no sugar
[4] = Table 8, enzyme 110 μg/ml, ONPG 5 mg/ml, Gal 5 mg/ml
[5] = Table 8, enzyme 110 μg/ml, ONPG 5 mg/ml, no sugar
[6] = Table 9, enzyme 110 μg/ml, ONPG 1.25 mg/ml
[7] = Table 9, enzyme 110 μg/ml, ONPG 2.5 mg/ml
[8] = Table 9, enzyme 110 μg/ml, ONPG 5 mg/ml
[9] = Table 9, enzyme 110 μg/ml, ONPG 10 mg/ml
[10] = Table 10, enzyme 110 μg/ml, ONPG 5 mg/ml, Gal2 0.05 mg/ml
[11] = Table 10, enzyme 110 μg/ml, ONPG 5 mg/ml, Gal2 0.5 mg/ml
[12] = Table 10, enzyme 110 μg/ml, ONPG 5 mg/ml, Gal3 0.05 mg/ml

B1: HIGAL: GH Family 53 galactanase from Humicola insolens, SEQ ID NO: 2 (wild type parent) (protein, listed as Humicola insolens)
chain: ALQYKGVDWSSVMVEERAGVRYKNVNGQEKPLEYILAENGVNMVRQRVWVNPWDGNYNLDYNIQLARRAKAAGLGLYINFHYSDTWADPAHQTTPAGWPSDINNLAWKLYNYTLDSMNRFADAGIQVDIVSIGNEITQGLLWPLGKTNNWYNIARLLHSAAWGVKDSRLNPKPKIMVHLDNGWNWDTQNWWYTNVLSQGPFEMSDFDMMGVSFYPFYSASATLDSLRRSLNNMVSRWGKEVAVVETNWPTSCPYPRYQFPADVRNVPFSAAGQTQYIQSVANVVSSVSKGVGLFYWEPAWIHNANLGSSCADNTMFTPSGQALSSLSVFHRI
modifications: mat_peptide (1)..()
- Effect of Ara on ONP release (Ara 5 mg/ml): about three times slower ONP release
- Slowing of ONP release by addition of Gal (Gal 5 mg/ml): a factor of three
- Effect of GalA on ONP release (GalA 5 mg/ml): weak inhibitory effect
- Effect of GalA on ONP release (GalA 50 mg/ml): slows ONP release by about a factor two
- Effect of Glu on ONP release (Glu 5 mg/ml): slight inhibitory effect
- ONP release in 30 min (Glu 50 mg/ml, results not shown): < 0.02
- Effect of Mal or Mal3 on ONP release (Mal or Mal3 5 mg/ml): no significant effects on ONP release
- ONP release compared at identical enzyme dosage (Table 8): faster than MTGAL
- Time (min) to increase A405 by: 0.025 [1]: 41.4 min
- Time (min) to increase A405 by: 0.05 [1]: 46.5 min
- Time (min) to increase A405 by: 0.1 [1]: 51.0 min
- Time (min) to increase A405 by: 0.2 [1]: 56.5 min
- Time (min) to increase A405 by: 0.4 [1]: n.r.
- Time (min) to increase A405 by: 0.8 [1]: n.r.
- Time (min) to increase A405 by: 1.6 [1]: n.r.
- Time (min) to increase A405 by: 3.2 [1]: n.r.
- Time (min) to increase A405 by: 0.025 [2]: 57.0 min
- Time (min) to increase A405 by: 0.05 [2]: n.r.
- Time (min) to increase A405 by: 0.1 [2]: n.r.
- Time (min) to increase A405 by: 0.2 [2]: n.r.
- Time (min) to increase A405 by: 0.4 [2]: n.r.
- Time (min) to increase A405 by: 0.8 [2]: n.r.
- Time (min) to increase A405 by: 1.6 [2]: n.r.
- Time (min) to increase A405 by: 3.2 [2]: n.r.
- Time (min) to increase A405 by: 0.025 [3]: 20.4 min
- Time (min) to increase A405 by: 0.05 [3]: 22.9 min
- Time (min) to increase A405 by: 0.1 [3]: 25.4 min
- Time (min) to increase A405 by: 0.2 [3]: 28.0 min
- Time (min) to increase A405 by: 0.4 [3]: 30.9 min
- Time (min) to increase A405 by: 0.8 [3]: 32.0 min
- Time (min) to increase A405 by: 1.6 [3]: 35.0 min
- Time (min) to increase A405 by: 3.2 [3]: 37.9 min
- Time (min) to increase A405 by: 0.025 [4]: 32.0 min
- Time (min) to increase A405 by: 0.05 [4]: 35.7 min
- Time (min) to increase A405 by: 0.1 [4]: 41.5 min
- Time (min) to increase A405 by: 0.2 [4]: 46.7 min
- Time (min) to increase A405 by: 0.4 [4]: 52.7 min
- Time (min) to increase A405 by: 0.8 [4]: 59.0 min
- Time (min) to increase A405 by: 1.6 [4]: n.r.
- Time (min) to increase A405 by: 3.2 [4]: n.r.
- Time (min) to increase A405 by: 0.025 [5]: 9.0 min
- Time (min) to increase A405 by: 0.05 [5]: 10.3 min
- Time (min) to increase A405 by: 0.1 [5]: 11.5 min
- Time (min) to increase A405 by: 0.2 [5]: 12.7 min
- Time (min) to increase A405 by: 0.4 [5]: 13.8 min
- Time (min) to increase A405 by: 0.8 [5]: 15.0 min
- Time (min) to increase A405 by: 1.6 [5]: 15.0 min
- Time (min) to increase A405 by: 3.2 [5]: 17.7 min
- Time (min) to increase A405 by: 0.025 [6]: 28.7 min
- Time (min) to increase A405 by: 0.05 [6]: n.r.
- Time (min) to increase A405 by: 0.1 [6]: n.r.
- Time (min) to increase A405 by: 0.2 [6]: n.r.
- Time (min) to increase A405 by: 0.4 [6]: n.r.
- Time (min) to increase A405 by: 0.8 [6]: n.r.
- Time (min) to increase A405 by: 1.6 [6]: n.r.
- Time (min) to increase A405 by: 3.2 [6]: n.r.
- Time (min) to increase A405 by: 0.025 [7]: 9.7 min
- Time (min) to increase A405 by: 0.05 [7]: 11.3 min
- Time (min) to increase A405 by: 0.1 [7]: 12.7 min
- Time (min) to increase A405 by: 0.2 [7]: 14.0 min
- Time (min) to increase A405 by: 0.4 [7]: 15.5 min
- Time (min) to increase A405 by: 0.8 [7]: 17.3 min
- Time (min) to increase A405 by: 1.6 [7]: 19.5 min
- Time (min) to increase A405 by: 3.2 [7]: 22.8 min
- Time (min) to increase A405 by: 0.025 [8]: 6.0 min
- Time (min) to increase A405 by: 0.05 [8]: 8.0 min
- Time (min) to increase A405 by: 0.1 [8]: 9.2 min
- Time (min) to increase A405 by: 0.2 [8]: 10.2 min
- Time (min) to increase A405 by: 0.4 [8]: 11.3 min
- Time (min) to increase A405 by: 0.8 [8]: 12.5 min
- Time (min) to increase A405 by: 1.6 [8]: 13.8 min
- Time (min) to increase A405 by: 3.2 [8]: 15.3 min
- Time (min) to increase A405 by: 0.025 [9]: 6.3 min
- Time (min) to increase A405 by: 0.05 [9]: 7.7 min
- Time (min) to increase A405 by: 0.1 [9]: 8.8 min
- Time (min) to increase A405 by: 0.2 [9]: 10.0 min
- Time (min) to increase A405 by: 0.4 [9]: 11.2 min
- Time (min) to increase A405 by: 0.8 [9]: 12.3 min
- Time (min) to increase A405 by: 1.6 [9]: 13.5 min
- Time (min) to increase A405 by: 3.2 [9]: 14.7 min
- Initial rate (mOD/min) [10]: 2 mOD/min
- Time (min) to increase A405 by: 0.025 [10]: 5.5 min
- Time (min) to increase A405 by: 0.05 [10]: 6.8 min
- Time (min) to increase A405 by: 0.1 [10]: 8.2 min
- Time (min) to increase A405 by: 0.2 [10]: 9.5 min
- Time (min) to increase A405 by: 0.4 [10]: 10.7 min
- Time (min) to increase A405 by: 0.8 [10]: 11.8 min
- Time (min) to increase A405 by: 1.6 [10]: 13.3 min
- Time (min) to increase A405 by: 3.2 [10]: 15.2 min
- Initial rate (mOD/min) [11]: 6 mOD/min
- Time (min) to increase A405 by: 0.025 [11]: 2.7 min
- Time (min) to increase A405 by: 0.05 [11]: 3.5 min
- Time (min) to increase A405 by: 0.1 [11]: 4.8 min
- Time (min) to increase A405 by: 0.2 [11]: 6.0 min
- Time (min) to increase A405 by: 0.4 [11]: 7.2 min
- Time (min) to increase A405 by: 0.8 [11]: 8.3 min
- Time (min) to increase A405 by: 1.6 [11]: 9.7 min
- Time (min) to increase A405 by: 3.2 [11]: 11.0 min
- Initial rate (mOD/min) [12]: 40 mOD/min
- Time (min) to increase A405 by: 0.025 [12]: 0.5 min
- Time (min) to increase A405 by: 0.05 [12]: 1.0 min
- Time (min) to increase A405 by: 0.1 [12]: 1.7 min
- Time (min) to increase A405 by: 0.2 [12]: 2.3 min
- Time (min) to increase A405 by: 0.4 [12]: 3.3 min
- Time (min) to increase A405 by: 0.8 [12]: 4.8 min
- Time (min) to increase A405 by: 1.6 [12]: 6.3 min
- Time (min) to increase A405 by: 3.2 [12]: 7.7 min
